The record followed here is US20250154215A1, “PHARMACEUTICAL COMPOSITION FOR TREATING COLITIS OR COLORECTAL CANCER COMPRISING COLON-TARGETED S100A8/A9-DERIVED SPECIFIC PEPTIDE” (Industry-University Cooperation Foundation Hanyang …, priority 2023, published 2025).

No end group written: not given here.

The test system of series [1] is OxaR CRC cells (HT29, HCT116 and SW480). Nature of the series: WST-8-based cell viability assay in parental and drug-resistant CRC cell lines. The note with it: HT29, HCT116, SW480 OxaR; 24 hours. The source says: To establish a CRC cell model resistant to oxaliplatin, doxorubicin, or 5-FU, HT29, HT116, and SW480 cells were exposed to progressively increasing concentrations of oxaliplatin, doxorubicin, or 5-FU. The established oxaliplatin, doxorubicin, and 5-FU resistant cells were named OxaR, DoxR, and 5-FuR cells, respectively.
To confirm the inhibitory effect of rCT-S100A8/A9 on oxaliplatin resistance, the present inventors performed a water-soluble tetrazolium-8 (WST-8)-based cell viability assay using parental cells of three CRC cell lines, HT29, HCT-116 and SW480, and their corresponding oxaliplatin-resistant (OxaR) cell lines. OxaR CRC cells (HT29, HCT116 and SW480) were established by long-term exposure of CRC cells to oxaliplatin as described in Example 1.

The nature of series [2]: The results of in vitro plasma stability, microsomal stability, CYP inhibition and PK profile of S100A8/A9 peptides and rCT-S100A8/A9 proteins. The note with it: mouse, plasma, ip, 1 mg/kg. How it is done:
Table printed on a drawing sheet, Fig. 5B
Title: The results of in vitro plasma stability, microsomal stability, CYP inhibition and PK profile of S100A8/A9 peptides and rCT-S100A8/A9 proteins
The patent's description of the figure: FIGS. 5A and 5B show the drug-like properties of rCT-S100A8/A9. […] Bacteria-purified 6×His-rCT-S100A8/9, rVehicle or rCT was analyzed by Coomassie staining or IB using αHis (bottom, left). BMDMs were incubated with rVehicle, rCT, or rCT-S100A8/9 for the indicated times and at the indicated concentrations, and then cell viability was measured by MTT assay (bottom, right). […] HLM, human liver microsomes; CYP, cytochrome P450. aTmax, arrival time; AUClast, total area under the plasma concentration-time curve from time 0 to the time of the last measurement; Cmax, maximum plasma concentration;
First reader's note: All values were measured after ip dosing of 1 mg/kg in mice (n = 5); the footnote for the raised a is not printed on the sheet, and the title stands once above both tables.

Series [3] has as its target T1, endogenous RAGE of mouse BMDMs and mouse colon (mouse, UniProt Q62151 23-402).
T1 construct: whole, on cells; Endogenous protein, immunoprecipitated with αRAGE from BMDM or colon lysates; also called receptor for advanced glycation end products
Description: co-IP in BMDMs incubated with recombinant protein at 5 µg/ml (IP αRAGE, IB αHis), FIG. 1B. As to the method:
(§1) The 293T cells were used for immunoprecipitation (IP) including αMyc, and then for immunoblotting (IB) including αHA or αHis. […] Bone marrow-derived macrophages (BMDMs) were incubated with rHA-S100A8 or rHis-S100A9 (5 μg/ml) for 10 minutes. The BMDMs were subjected to IP using αTLR4 (FIG. 1A, right) or αRAGE (FIG. 1B, right), and then subjected to IB using αHA, αHis, αTLR4, or αRAGE. The WCLs were used for IB including αHA, αHis, αTLR4, αRAGE, or αActin. In FIG. 1C, on the left, relative expression of S100A8 or S100A9 in colons of normal, acute colitis, chronic colitis, and colorectal cancer mice was determined, and biological replicates (n=10) were used for each condition. On the right, IB was performed on sera from normal, acute colitis, chronic colitis, and colorectal cancer mice using αS100A8 or αS100A9. Coomassie blue (CB)-stained gels show consistent loading of serum proteins. Data from 3 out of 10 samples is shown. […] The WCLs were used for IB including αS100A8, αS100A9, αTLR4, αRAGE, or αActin. Data is representative of seven independent experiments with similar results (FIGS. 1A-1D);
(§2) 293T, BMDMs, and THP-1 cells were treated as indicated and processed for analysis by GST pulldown, Western blotting, and co-IP analysis. For GST pulldown, 293T cells were harvested and lysed in an NP-40 buffer including a complete protease inhibitor cocktail (Roche, Basel, Switzerland). […]

Series [4] addresses T2, endogenous TLR4 of mouse BMDMs and mouse colon (mouse, UniProt Q9QUK6 26-835).
T2 construct: whole, on cells; Endogenous protein, immunoprecipitated with αTLR4 from BMDM or colon lysates; also called toll-like receptor 4
T2 sequence (looked up): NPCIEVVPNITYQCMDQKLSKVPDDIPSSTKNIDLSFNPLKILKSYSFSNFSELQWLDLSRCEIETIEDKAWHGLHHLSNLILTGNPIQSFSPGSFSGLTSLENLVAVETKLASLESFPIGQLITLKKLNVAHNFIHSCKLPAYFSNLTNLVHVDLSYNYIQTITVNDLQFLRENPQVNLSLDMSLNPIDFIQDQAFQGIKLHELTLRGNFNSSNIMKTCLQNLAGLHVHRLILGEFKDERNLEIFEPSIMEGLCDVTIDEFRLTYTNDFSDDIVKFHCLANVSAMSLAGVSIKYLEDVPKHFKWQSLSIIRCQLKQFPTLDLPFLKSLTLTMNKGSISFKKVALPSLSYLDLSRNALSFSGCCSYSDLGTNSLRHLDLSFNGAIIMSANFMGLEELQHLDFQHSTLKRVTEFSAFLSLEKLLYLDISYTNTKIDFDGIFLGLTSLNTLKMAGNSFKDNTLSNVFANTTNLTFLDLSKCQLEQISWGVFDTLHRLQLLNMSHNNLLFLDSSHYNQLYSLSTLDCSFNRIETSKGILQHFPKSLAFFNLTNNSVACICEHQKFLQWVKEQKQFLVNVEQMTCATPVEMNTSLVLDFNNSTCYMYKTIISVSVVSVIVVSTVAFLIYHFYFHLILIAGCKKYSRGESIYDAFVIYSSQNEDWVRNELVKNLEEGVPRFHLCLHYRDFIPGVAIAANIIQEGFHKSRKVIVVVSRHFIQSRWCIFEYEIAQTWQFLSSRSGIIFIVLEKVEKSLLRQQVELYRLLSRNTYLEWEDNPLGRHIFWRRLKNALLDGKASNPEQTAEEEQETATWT
Description: co-IP in BMDMs incubated with recombinant protein at 5 µg/ml (IP αTLR4, IB αHis), FIG. 1A. As to the method: as §1, §2

The target of series [5] is T1, endogenous RAGE of mouse BMDMs and …. Nature of the series: co-IP from colon lysates of acute colitis, chronic colitis and CRC mice (IP αRAGE, IB αS100A9), FIG. 1D. As to the method:
as §1, §2

For series [6], the target named is T2, endogenous TLR4 of mouse BMDMs and …. Description: co-IP from colon lysates of acute colitis, chronic colitis and CRC mice (IP αTLR4, IB αS100A9), FIG. 1D. How it is done: as §1, §2
Another series deals with TLR4 or RAGE. Description: Co-IP of recombinant S100A8 or S100A9 with endogenous TLR4 or RAGE in BMDMs. The series is classed as binding, mouse. The note with it: 5 μg/ml, 10 minutes. How it is done: 293T, BMDMs, and THP-1 cells were treated as indicated and processed for analysis by GST pulldown, Western blotting, and co-IP analysis. For GST pulldown, 293T cells were harvested and lysed in an NP-40 buffer including a complete protease inhibitor cocktail (Roche, Basel, Switzerland). After centrifugation, the supernatant was pre-cleared using protein A/G beads for two hours at 4° C. The pre-cleared lysates were mixed with a 50% slurry of glutathione-conjugated Sepharose beads (Amersham Biosciences, Amersham, UK), and binding reactions were performed for four hours at 4° C. by incubating the lysates at 4° C. The precipitate was extensively washed with a lysis buffer. Proteins bound to the glutathione beads were eluted by boiling for five minutes in a sodium dodecyl sulfate (SDS) loading buffer. For IP, cells were harvested and lysed in an NP-40 buffer supplemented with a complete protease inhibitor cocktail (Roche, Switzerland). […] For immunoblotting (IB), polypeptides were analyzed by SDS-polyacrylamide gel electrophoresis and transferred to polyvinylidene difluoride (PVDF) membranes (Bio-Rad, Hercules, CA, USA). […] Antibody binding was visualized by chemiluminescence (ECL; Millipore, Burlington, MA, USA) and detected using a Vilber chemiluminescence analyzer (Fusion SL 3; Vilber Lourmat). […]

Series [7] deals with T2, endogenous TLR4 of mouse BMDMs and …. Nature of the series: co-IP from mouse colon lysates (IP αTLR4, IB αS100A8), FIG. 1D. As to the method:
as §1, §2

In series [8] the target is T1, endogenous RAGE of mouse BMDMs and …. Nature of the series: co-IP from colon lysates of acute colitis, chronic colitis and CRC mice (IP αRAGE, IB αS100A8), FIG. 1D. How it is done:
as §1, §2

For series [9] the target is unchanged. Description: co-IP in BMDMs incubated with recombinant protein at 5 µg/ml (IP αRAGE, IB αHA), FIG. 1B. How it is done: as §1, §2
The target of series [10] is T2, endogenous TLR4 of mouse BMDMs and …. Description: co-IP in BMDMs incubated with recombinant protein at 5 µg/ml (IP αTLR4, IB αHA), FIG. 1A. As to the method: as §1, §2

T1 sequence (Q62151 23-402): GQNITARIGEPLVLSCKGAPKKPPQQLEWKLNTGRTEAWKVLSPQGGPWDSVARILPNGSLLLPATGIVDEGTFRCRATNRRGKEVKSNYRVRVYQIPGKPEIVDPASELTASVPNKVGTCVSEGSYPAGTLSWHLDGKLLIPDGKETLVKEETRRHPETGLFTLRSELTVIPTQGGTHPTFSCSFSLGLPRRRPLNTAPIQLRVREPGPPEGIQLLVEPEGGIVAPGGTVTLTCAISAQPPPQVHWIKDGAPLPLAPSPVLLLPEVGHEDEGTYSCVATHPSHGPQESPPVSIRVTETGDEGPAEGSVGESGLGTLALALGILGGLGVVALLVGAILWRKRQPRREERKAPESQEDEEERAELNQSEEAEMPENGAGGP

Consider `O=C1[O][Pt]2([NH][C@@H]3CCCC[C@H]3[NH]2)[O]C1=O` [oxaliplatin, reference compound], for which the “cell viability of OxaR CRC cells” value in [1] is “significant resistance to oxaliplatin treatment”.
“FLVIKGGAHKSHKGGITIITFGGGHHGG [S100A8/A9]”: the Cmax in [2] (read-out: PK parameters (ip, 1 mg/kg, mice (n = 5))^a | Cmax) was 102 ± 41.2 ng/mL. Further, in series [2] (read-out: PK parameters (ip, 1 mg/kg, mice (n = 5))^a | T1/2 (converted)), the half-life was 25.2 ± 30.6 min.

B1: rHis-mS100A9 (ligand)
chain: ANKAPSQMERSITTIIDTFHQYSRKEGHPDTLSKKEFRQMVEAQLATFMKKEKRNEALINDIMEDLDTNQDNQLSFEECMMLMAKLIFACHEKLHENNPRGHGHSHGKGCGK
notes: Recombinant protein added to BMDMs at 5 µg/ml; also called rHis-S100A9; rS100A9; not shown: His tag
With B1, the binding result in series [3] and in [4] was “binds” in each case.

B2: endogenous mouse S100A9 (ligand, UniProt P31725 2-113, looked up)
chain: ANKAPSQMERSITTIIDTFHQYSRKEGHPDTLSKKEFRQMVEAQLATFMKKEKRNEALINDIMEDLDTNQDNQLSFEECMMLMAKLIFACHEKLHENNPRGHGHSHGKGCGK
notes: Endogenous protein detected with αS100A9 in co-immunoprecipitates
In the case of B2, the binding result in series [5] and in [6] was “binds” each time.

B3: rHis-mS100A9: recombinant His-tagged S100A9 protein (protein)
chain: ANKAPSQMERSITTIIDTFHQYSRKEGHPDTLSKKEFRQMVEAQLATFMKKEKRNEALINDIMEDLDTNQDNQLSFEECMMLMAKLIFACHEKLHENNPRGHGHSHGKGCGK
modifications: left off: small tags and cut ends
notes: recombinant His-tagged S100A9 protein
B3: in the series on TLR4 or RAGE, the “binding to PRRs (TLR4 and RAGE)” value is “stronger binding to PRRs (TLR4 and RAGE) than rHA-mS100A8”.

B4: endogenous mouse S100A8 (ligand, UniProt P27005 2-89, looked up)
chain: PSELEKALSNLIDVYHNYSNIQGNHHALYKNDFKKMVTTECPQFVQNINIENLFRELDINSDNAINFEEFLAMVIKVGVASHKDSHKE
notes: Endogenous protein detected with αS100A8 in co-immunoprecipitates
As to B4, the binding result in series [7] and in [8] was “binds” each time.

B5: rHA-mS100A8 (ligand)
chain: PSELEKALSNLIDVYHNYSNIQGNHHALYKNDFKKMVTTECPQFVQNINIENLFRELDINSDNAINFEEFLAMVIKVGVASHKDSHKE
notes: Recombinant protein added to BMDMs at 5 µg/ml; also called rHA-S100A8; rS100A8; not shown: HA tag
B5: the binding result in [9] and in series [10] was “binds” throughout.
